Measurements from patent US20080220446A1 (published 2008).

T1: factor XII (purified human factor XII from plasma) (human, UniProt P00748 20-615)
T1 construct: also called FXII
T1 sequence (looked up): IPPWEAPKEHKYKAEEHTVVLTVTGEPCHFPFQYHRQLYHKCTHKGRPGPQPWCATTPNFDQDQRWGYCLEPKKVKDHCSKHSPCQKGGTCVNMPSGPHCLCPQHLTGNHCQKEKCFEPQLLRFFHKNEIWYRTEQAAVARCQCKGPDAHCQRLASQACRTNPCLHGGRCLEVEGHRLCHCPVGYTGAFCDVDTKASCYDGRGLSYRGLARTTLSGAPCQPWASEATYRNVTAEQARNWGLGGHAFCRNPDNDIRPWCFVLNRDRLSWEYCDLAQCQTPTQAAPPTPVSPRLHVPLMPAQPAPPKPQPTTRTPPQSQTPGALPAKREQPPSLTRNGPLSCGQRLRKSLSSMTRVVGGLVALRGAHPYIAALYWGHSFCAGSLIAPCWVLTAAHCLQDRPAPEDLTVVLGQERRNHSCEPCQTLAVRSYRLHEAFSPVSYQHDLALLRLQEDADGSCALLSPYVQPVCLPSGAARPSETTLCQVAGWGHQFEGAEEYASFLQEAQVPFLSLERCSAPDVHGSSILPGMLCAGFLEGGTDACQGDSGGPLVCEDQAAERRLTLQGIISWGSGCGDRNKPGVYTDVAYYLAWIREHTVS


How the values were obtained:
[1] = biological target: T2, tissue-type plasminogen activator (tPA) (human, UniProt P00750 36-562); experiment: ELISA, tPA coated, concentration series of recombinant β2GPI
T2 construct: Full-length commercial tPA; also called Actilyse; Alteplase
T2 sequence (P00750 36-562 limits assumed): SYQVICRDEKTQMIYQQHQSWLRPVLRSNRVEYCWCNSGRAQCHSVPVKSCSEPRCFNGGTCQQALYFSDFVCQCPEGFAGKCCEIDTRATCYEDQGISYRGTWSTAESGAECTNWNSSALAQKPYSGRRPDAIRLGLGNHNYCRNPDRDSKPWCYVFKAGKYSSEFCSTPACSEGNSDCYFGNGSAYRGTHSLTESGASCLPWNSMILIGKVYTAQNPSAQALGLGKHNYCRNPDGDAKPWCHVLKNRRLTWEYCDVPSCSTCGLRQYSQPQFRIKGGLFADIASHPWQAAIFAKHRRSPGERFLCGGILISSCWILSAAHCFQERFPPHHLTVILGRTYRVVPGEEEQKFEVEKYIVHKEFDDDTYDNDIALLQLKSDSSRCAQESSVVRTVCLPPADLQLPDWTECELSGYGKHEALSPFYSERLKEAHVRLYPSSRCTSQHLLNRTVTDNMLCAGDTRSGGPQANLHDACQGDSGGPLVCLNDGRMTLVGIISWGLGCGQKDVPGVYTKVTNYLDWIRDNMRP
Method: (§1) Binding of β₂GPI was assessed with monoclonal antibody 2B2²².
(§2) The positive control was amyloid fibrin peptide FP13. […] C. […] Eluted fractions are analyzed on Western blot after SDS-PA electrophoresis. […] Signals are corrected for background fluorescence of CL, DXS, ThT and buffer.

[2] = biological target: T2, tissue-type plasminogen activator (tPA); experiment: ELISA, tPA immobilized, concentration series of recombinant β2GPI
Method: as §1, §2

[3] = biological target: T1, factor XII (purified human factor XII …); experiment: ELISA, factor XII coated, concentration series of recombinant β2GPI
[4] = biological target: T1, factor XII (purified human factor XII …); experiment: ELISA, factor XII immobilized, concentration series of recombinant β2GPI
Method: as §1, §2

[5] = biological target: T2, tissue-type plasminogen activator (tPA); experiment: ELISA, therapeutic coated on Nunc Immobilizer plate, concentration series of tPA, one-site binding fit
Method: Plates were washed twice with Tris buffered saline pH 7.2 containing 0.1% Tween20 (TBST) and blocked with PBS containing 1% Tween20 for 1 hour at room temperature. […] Plates were washed five times with TBST and incubated with peroxidase labeled anti-mouse immunoglobulins (RAMPO; DAKOCytomation, Glostrup, Denmark) diluted 1:3000 in PBST for 30 minutes at room temperature. Plates were washed five times with PBS 0.1% Tween20, and stained with 100 μL/well of tetramethyl-benzidine (TMB) substrate (Biosource Europe, Nivelles, Belgium). The reaction was terminated with 50 μL/well of 2 M H₂SO₄ and substrate conversion was read at 450 nm on a Spectramax340 microplate reader. Curves were fitted with a one-site binding model (GraphPad Prism version 4.02 for Windows, Graphpad Software, Calif., USA) from which Kd and Bmax were determined.

Binder | Kd [1] | Kd [2] | Kd [3] | Kd [4] | Kd [5]
recombinant human β2-glycoprotein I (insect cells) (other, UniProt P02749 20-345, looked up, also called recombinant β2GPI; rβ2GPI) GRTCPKPDDLPFSTVVPLKTFYEPGEEITYSCKPGYVSRGGMRKFICPLTGLWPINTLKCTPRVCPFAGILENGAVRYTTFEYPNTISFSCNTGFYLNGADSAKCTEEGKWSPELPVCAPIICPPPSIPTFATLRVYKPSAGNNSLYRDTAVFECLPQHAMFGNDTITCTTHGNWTKLPECREVKCPFPSRPDNGFVNYPAKPTLYYKDKATFGCHDGYSLDGPEEIECTKLGNWSAMPSCKASCKVPVKKATVVYQGERVKIQEKFKNGMLHGDKVSFFCKNKEKKCSYTEDAQCIDGTIEVPKCFKEHSSLAFWKTDASDVKPC | 51 nM | 2.3 µg/mL | 20 nM | 0.9 µg/mL | 
human coagulation factor VIII (FVIII) (Aafact) (other) chain 1: ATRRYYLGAVELSWDYMQSDLGELPVDARFPPRVPKSFPFNTSVVYKKTLFVEFTDHLFNIAKPRPPWMGLLGPTIQAEVYDTVVITLKNMASHPVSLHAVGVSYWKASEGAEYDDQTSQREKEDDKVFPGGSHTYVWQVLKENGPMASDPLCLTYSYLSHVDLVKDLNSGLIGALLVCREGSLAKEKTQTLHKFILLFAVFDEGKSWHSETKNSLMQDRDAASARAWPKMHTVNGYVNRSLPGLIGCHRKSVYWHVIGMGTTPEVHSIFLEGHTFLVRNHRQASLEISPITFLTAQTLLMDLGQFLLFCHISSHQHDGMEAYVKVDSCPEEPQLRMKNNEEAEDYDDDLTDSEMDVVRFDDDNSPSFIQIRSVAKKHPKTWVHYIAAEEEDWDYAPLVLAPDDRSYKSQYLNNGPQRIGRKYKKVRFMAYTDETFKTREAIQHESGILGPLLYGEVGDTLLIIFKNQASRPYNIYPHGITDVRPLYSRRLPKGVKHLKDFPILPGEIFKYKWTVTVEDGPTKSDPRCLTRYYSSFVNMERDLASGLIGPLLICYKESVDQRGNQIMSDKRNVILFSVFDENRSWYLTENIQRFLPNPAGVQLEDPEFQASNIMHSINGYVFDSLQLSVCLHEVAYWYILSIGAQTDFLSVFFSGYTFKHKMVYEDTLTLFPFSGETVFMSMENPGLWILGCHNSDFRNRGMTALLKVSSCDKNTGDYYEDSYEDISAYLLSKNNAIEPRSFSQNSRHPSTRQKQFNATTIPENDIEKTDPWFAHRTPMPKIQNVSSSDLLMLLRQSPTPHGLSLSDLQEAKYETFSDDPSPGAIDSNNSLSEMTHFRPQLHHSGDMVFTPESGLQLRLNEKLGTTAATELKKLDFKVSSTSNNLISTIPSDNLAAGTDNTSSLGPPSMPVHYDSQLDTTLFGKKSSPLTESGGPLSLSEENNDSKLLESGLMNSQESSWGKNVSSTESGRLFKGKRAHGPALLTKDNALFKVSISLLKTNKTSNNSATNRKTHIDGPSLLIENSPSVWQNILESDTEFKKVTPLIHDRMLMDKNATALRLNHMSNKTTSSKNMEMVQQKKEGPIPPDAQNPDMSFFKMLFLPESARWIQRTHGKNSLNSGQGPSPKQLVSLGPEKSVEGQNFLSEKNKVVVGKGEFTKDVGLKEMVFPSSRNLFLTNLDNLHENNTHNQEKKIQEEIEKKETLIQENVVLPQIHTVTGTKNFMKNLFLLSTRQNVEGSYDGAYAPVLQDFRSLNDSTNRTKKHTAHFSKKGEEENLEGLGNQTKQIVEKYACTTRISPNTSQQNFVTQRSKR chain 2: EITRTTLQSDQEEIDYDDTISVEMKKEDFDIYDEDENQSPRSFQKKTRHYFIAAVERLWDYGMSSSPHVLRNRAQSGSVPQFKKVVFQEFTDGSFTQPLYRGELNEHLGLLGPYIRAEVEDNIMVTFRNQASRPYSFYSSLISYEEDQRQGAEPRKNFVKPNETKTYFWKVQHHMAPTKDEFDCKAWAYFSDVDLEKDVHSGLIGPLLVCHTNTLNPAHGRQVTVQEFALFFTIFDETKSWYFTENMERNCRAPCNIQMEDPTFKENYRFHAINGYIMDTLPGLVMAQDQRIRWYLLSMGSNENIHSIHFSGHVFTVRKKEEYKMALYNLYPGVFETVEMLPSKAGIWRVECLIGEHLHAGMSTLFLVYSNKCQTPLGMASGHIRDFQITASGQYGQWAPKLARLHYSGSINAWSTKEPFSWIKVDLLAPMIIHGIKTQGARQKFSSLYISQFIIMYSLDGKKWQTYRGNSTGTLMVFFGNVDSSGIKHNIFNPPIIARYIRLHPTHYSIRSTLRMELMGCDLNSCSMPLGMESKAISDAQITASSYFTNMFATWSPSKARLHLQGRSNAWRPQVNNPKEWLQVDFQKTMKVTGVTTQGVKSLLTSMYVKEFLISSSQDGHQWTLFFQNGKVKVFQGNQDSFTPVVNSLDPPLLTRYLRIHPQSWVHQIALRMEVLGCEAQDLY |  |  |  |  | 230 nM
abciximab (ReoPro) (Fab, V domains shown) VH: EVQLQQSGTVLARPGASVKMSCEASGYTFTNYWMHWVKQRPGQGLEWIGAIYPGNSDTSYIQKFKGKAKLTAVTSTTSVYMELSSLTNEDSAVYYCTLYDGYYVFAYWGQGTLVTVSA VL: EIVLTQSPVTLSVTPGDSVSLSCRASRDISNNLHWFQQTSHESPRLLIKYASQSMSGIPSRFSGSGSGTDFTLSINSVETEDFGMYFCQQTNSWPYTFGGGTKLEIK |  |  |  |  | 216 nM
